In patent US5876710A, “Compounds and compositions for delivering active agents” (Emisphere Technologies Inc., priority 1997, dated 1999):

Parameters: species or system Rats
Conditions: rat, in vivo, po, 1 mg/kg

Substance: interferon
- Mean peak serum interferon concentration: 1951±1857
